Patent US5928893

Tests used:
[1] = target: human 4-1BB on T cells (human) (UniProt Q07011)
[2] = target: human 4-1BB on T cells (human) (UniProt Q07011); test: flow cytometry, normal (non-activated) human CD4+ T cells
[3] = target: human 4-1BB on T cells (human) (UniProt Q07011); test: flow cytometry, normal (non-activated) human CD8+ T cells
[4] = target: human 4-1BB on T cells (human) (UniProt Q07011); test: flow cytometry, PBL CD4+ T cells, rheumatoid arthritis patient 2
[5] = target: human 4-1BB on T cells (human) (UniProt Q07011); test: flow cytometry, PBL CD8+ T cells, rheumatoid arthritis patient 2
[6] = target: human 4-1BB on T cells (human) (UniProt Q07011); test: flow cytometry, human CD4+ T cells activated with Con A for 24 hours
[7] = target: human 4-1BB on T cells (human) (UniProt Q07011); test: flow cytometry, human CD8+ T cells activated with Con A for 24 hours
[8] = target: human 4-1BB on T cells (human) (UniProt Q07011); test: flow cytometry, PBL CD4+ T cells, rheumatoid arthritis patient
[9] = target: human 4-1BB on T cells (human) (UniProt Q07011); test: flow cytometry, PBL CD8+ T cells, rheumatoid arthritis patient
[10] = target: human 4-1BB on T cells (human) (UniProt Q07011); test: flow cytometry, synovial lymphocyte CD4+ T cells, rheumatoid arthritis patient 2
[11] = target: human 4-1BB on T cells (human) (UniProt Q07011); test: flow cytometry, synovial lymphocyte CD8+ T cells, rheumatoid arthritis patient 2
[12] = target: human 4-1BB on T cells (human) (UniProt Q07011); test: flow cytometry, synovial lymphocyte CD4+ T cells, rheumatoid arthritis patient
[13] = target: human 4-1BB on T cells (human) (UniProt Q07011); test: flow cytometry, synovial lymphocyte CD8+ T cells, rheumatoid arthritis patient

suppression rate (%) of one way-allogeneic mixed lymphocyte reaction (3H-thymidine uptake) [1]: 67%
% of CD4+ T cells showing positive responses [2]: 17%
% of CD8+ T cells showing positive responses [3]: 36%
% of T Cells Showing Reactivity with 4B4-1-1 [4]: 20%
% of T Cells Showing Reactivity with 4B4-1-1 [5]: 43.5%
% of CD4+ T cells showing positive responses [6]: 72%
% of CD8+ T cells showing positive responses [7]: 89%
% of T Cells Showing Reactivity with 4B4-1-1 [8]: 2.2%
% of T Cells Showing Reactivity with 4B4-1-1 [9]: 12.7%
% of T Cells Showing Reactivity with 4B4-1-1 [10]: 38%
% of T Cells Showing Reactivity with 4B4-1-1 [11]: 42.4%
% of T Cells Showing Reactivity with 4B4-1-1 [12]: 11.3%
% of T Cells Showing Reactivity with 4B4-1-1 [13]: 68.1%
Substance: monoclonal antibody 4B4-1-1
